Experimental data from the supplement of paper PMC10567573.

B1: TRIM14 (parent)
chain: REQADSCREQLDIMNDLSNRVWSI

Variants of: B1
Assay: protein stability index of a GFP-peptide fusion (GPS, HEK-293T) (PSI 1-6); higher = more stable
Settings: c terminus: a fixed tail appended
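Further: lentivirally expressed fusions sorted by FACS into six bins by GFP to DsRed ratio, PSI derived from sequencing read proportions per bin multiplied by bin number.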

Row | Variant | protein stability index
1 | REQADSCREQLDIMNDLINRVWSI [S18I] | 2.2
2 | REQADSCREQLDIMNDLFNRVWSI [S18F] | 1.48
3 | REQADSCREQLDIMNDLDNRVWSI [S18D] | 2.8
4 | REQADSCREQLDIMNDLNNRVWSI [S18N] | 2.14
5 | REQADSCREQLDIMNDLLNRVWSI [S18L] | 1.73
6 | REQADSCREQLDIMNDLCNRVWSI [S18C] | 2.3
7 | REQADSCREQLDIMNDLENRVWSI [S18E] | 2.75
8 | REQADSCREQLDIMNDLPNRVWSI [S18P] | 2.35
9 | REQADSCREQLDIMNDLTNRVWSI [S18T] | 2.05
10 | REQADSCREQLDIMNDLRNRVWSI [S18R] | 1.64
11 | REQADSCREQLDIMNDLWNRVWSI [S18W] | 2.21
12 | REQADSCREQLDIMNDLGNRVWSI [S18G] | 1.83
13 | REQADSCREQLDIMNDLKNRVWSI [S18K] | 1.87
14 | REQADSCREQLDIMNDLVNRVWSI [S18V] | 1.99
15 | REQADSCREQLDIMNDLYNRVWSI [S18Y] | 2.07
16 | REQADSCREQLDIMNDLQNRVWSI [S18Q] | 1.63
17 | REQADSCREQLDIMNDLHNRVWSI [S18H] | 1.77
18 | REQADSCREQLDIMNDLANRVWSI [S18A] | 2.29
19 | REQADSCREQLDIMNDLSSRVWSI [N19S] | 3.17
20 | REQADSCREQLDIMNDLSKRVWSI [N19K] | 2.1
21 | REQADSCREQLDIMNDLSCRVWSI [N19C] | 1.58
22 | REQADSCREQLDIMNDLSYRVWSI [N19Y] | 2.08
23 | REQADSCREQLDIMNDLSARVWSI [N19A] | 2.91
24 | REQADSCREQLDIMNDLSVRVWSI [N19V] | 2.39

Row | Variant | protein stability index
25 | REQADSCREQLDIMNDLSERVWSI [N19E] | 2.98
26 | REQADSCREQLDIMNDLSDRVWSI [N19D] | 3.16
27 | REQADSCREQLDIMNDLSGRVWSI [N19G] | 2.61
28 | REQADSCREQLDIMNDLSHRVWSI [N19H] | 2.26
29 | REQADSCREQLDIMNDLSTRVWSI [N19T] | 2.04
30 | REQADSCREQLDIMNDLSPRVWSI [N19P] | 2.95
31 | REQADSCREQLDIMNDLSQRVWSI [N19Q] | 2.94
32 | REQADSCREQLDIMNDLSWRVWSI [N19W] | 2.12
33 | REQADSCREQLDIMNDLSFRVWSI [N19F] | 1.54
34 | REQADSCREQLDIMNDLSIRVWSI [N19I] | 1.98
35 | REQADSCREQLDIMNDLSRRVWSI [N19R] | 2.3
36 | REQADSCREQLDIMNDLSMRVWSI [N19M] | 2.53
37 | REQADSCREQLDIMNDLSLRVWSI [N19L] | 2.08
38 | REQADSCREQLDIMNDLSNRMWSI [V21M] | 2.01
39 | REQADSCREQLDIMNDLSNREWSI [V21E] | 3.58
40 | REQADSCREQLDIMNDLSNRLWSI [V21L] | 2.88
41 | REQADSCREQLDIMNDLSNRAWSI [V21A] | 2.96
42 | REQADSCREQLDIMNDLSNRSWSI [V21S] | 2.45
43 | REQADSCREQLDIMNDLSNRTWSI [V21T] | 2.76
44 | REQADSCREQLDIMNDLSNRWWSI [V21W] | 2.01
45 | REQADSCREQLDIMNDLSNRNWSI [V21N] | 2.97
46 | REQADSCREQLDIMNDLSNRIWSI [V21I] | 3.01
47 | REQADSCREQLDIMNDLSNRDWSI [V21D] | 3.92
48 | REQADSCREQLDIMNDLSNRYWSI [V21Y] | 3.19

Row | Variant | protein stability index
49 | REQADSCREQLDIMNDLSNRHWSI [V21H] | 2.69
50 | REQADSCREQLDIMNDLSNRKWSI [V21K] | 2.69
51 | REQADSCREQLDIMNDLSNRQWSI [V21Q] | 3.06
52 | REQADSCREQLDIMNDLSNRGWSI [V21G] | 2.87
53 | REQADSCREQLDIMNDLSNRCWSI [V21C] | 2.41
54 | REQADSCREQLDIMNDLSNRFWSI [V21F] | 3.06
55 | REQADSCREQLDIMNDLSNRRWSI [V21R] | 2.18
56 | REQADSCREQLDIMNDLSNRPWSI [V21P] | 3.01
57 | REQADSCREQLDIMNDLSNRVESI [W22E] | 4.84
58 | REQADSCREQLDIMNDLSNRVCSI [W22C] | 3.77
59 | REQADSCREQLDIMNDLSNRVASI [W22A] | 3.85
60 | REQADSCREQLDIMNDLSNRVPSI [W22P] | 4.32
61 | REQADSCREQLDIMNDLSNRVMSI [W22M] | 3.29
62 | REQADSCREQLDIMNDLSNRVISI [W22I] | 2.79
63 | REQADSCREQLDIMNDLSNRVDSI [W22D] | 4.56
64 | REQADSCREQLDIMNDLSNRVYSI [W22Y] | 2.78
65 | REQADSCREQLDIMNDLSNRVLSI [W22L] | 3
66 | REQADSCREQLDIMNDLSNRVHSI [W22H] | 3.79
67 | REQADSCREQLDIMNDLSNRVSSI [W22S] | 4.21
68 | REQADSCREQLDIMNDLSNRVTSI [W22T] | 4.13
69 | REQADSCREQLDIMNDLSNRVRSI [W22R] | 4.28
70 | REQADSCREQLDIMNDLSNRVFSI [W22F] | 2.82
71 | REQADSCREQLDIMNDLSNRVKSI [W22K] | 3.98
72 | REQADSCREQLDIMNDLSNRVQSI [W22Q] | 4.12

Row | Variant | protein stability index
73 | REQADSCREQLDIMNDLSNRVGSI [W22G] | 4.34
74 | REQADSCREQLDIMNDLSNRVVSI [W22V] | 3.14
75 | REQADSCREQLDIMNDLSNRVNSI [W22N] | 3.72
76 | REQADSCREQLDIMNKLSNRVWSI [D16K] | 3.35
77 | REQADSCREQLDIMNVLSNRVWSI [D16V] | 1.65
78 | REQADSCREQLDIMNELSNRVWSI [D16E] | 2.06
79 | REQADSCREQLDIMNCLSNRVWSI [D16C] | 1.8
80 | REQADSCREQLDIMNMLSNRVWSI [D16M] | 1.61
81 | REQADSCREQLDIMNYLSNRVWSI [D16Y] | 2.01
82 | REQADSCREQLDIMNGLSNRVWSI [D16G] | 2.25
83 | REQADSCREQLDIMNFLSNRVWSI [D16F] | 1.86
84 | REQADSCREQLDIMNNLSNRVWSI [D16N] | 1.63
85 | REQADSCREQLDIMNALSNRVWSI [D16A] | 2.28
86 | REQADSCREQLDIMNTLSNRVWSI [D16T] | 1.99
87 | REQADSCREQLDIMNILSNRVWSI [D16I] | 1.77
88 | REQADSCREQLDIMNHLSNRVWSI [D16H] | 1.64
89 | REQADSCREQLDIMNQLSNRVWSI [D16Q] | 2.18
90 | REQADSCREQLDIMNRLSNRVWSI [D16R] | 2.85
91 | REQADSCREQLDIMNWLSNRVWSI [D16W] | 2.04
92 | REQADSCREQLDIMNPLSNRVWSI [D16P] | 1.52
93 | REQADSCREQLDIMNLLSNRVWSI [D16L] | 1.68
94 | REQADSCREQLDIMNSLSNRVWSI [D16S] | 2.19
